Article PMC7144476 (Molecular plant, 2015)

Biological target: MBP-BSU1 (Arabidopsis, UniProt Q9LR78 1-793)
Assay: pull-down

Chain of MBP-BSU1 (Q9LR78 whole entry): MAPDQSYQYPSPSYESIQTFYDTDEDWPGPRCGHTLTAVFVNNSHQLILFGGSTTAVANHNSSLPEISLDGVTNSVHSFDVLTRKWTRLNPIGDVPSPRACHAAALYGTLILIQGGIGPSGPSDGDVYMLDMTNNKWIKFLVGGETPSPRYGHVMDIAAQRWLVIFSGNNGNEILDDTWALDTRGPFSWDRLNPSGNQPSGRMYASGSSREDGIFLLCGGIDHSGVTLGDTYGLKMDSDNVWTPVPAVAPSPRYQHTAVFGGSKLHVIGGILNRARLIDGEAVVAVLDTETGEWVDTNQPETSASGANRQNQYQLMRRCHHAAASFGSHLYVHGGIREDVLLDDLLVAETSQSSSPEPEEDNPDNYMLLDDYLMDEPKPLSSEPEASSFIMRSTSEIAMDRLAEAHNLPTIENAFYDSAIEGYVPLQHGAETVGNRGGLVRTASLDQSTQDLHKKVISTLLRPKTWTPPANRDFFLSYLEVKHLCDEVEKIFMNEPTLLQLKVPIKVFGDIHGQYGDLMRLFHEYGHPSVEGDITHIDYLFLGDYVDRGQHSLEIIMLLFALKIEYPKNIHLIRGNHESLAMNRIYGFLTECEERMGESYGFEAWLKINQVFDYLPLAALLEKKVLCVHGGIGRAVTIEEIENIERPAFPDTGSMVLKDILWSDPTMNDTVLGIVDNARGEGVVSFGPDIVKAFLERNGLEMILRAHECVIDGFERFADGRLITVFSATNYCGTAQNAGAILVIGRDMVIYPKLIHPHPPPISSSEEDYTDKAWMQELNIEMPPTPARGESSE

- binding result: binds
B1: BSK1-myc (natural protein, UniProt Q944A7 1-512, looked up)
chain: MGCCQSLFSGDNPLGKDGVQPQPLSQNNHGGATTADNGGSGGASGVGGGGGGGGIPSFSEFSFADLKAATNNFSSDNIVSESGEKAPNLVYKGRLQNRRWIAVKKFTKMAWPEPKQFAEEAWGVGKLRHNRLANLIGYCCDGDERLLVAEFMPNDTLAKHLFHWENQTIEWAMRLRVGYYIAEALDYCSTEGRPLYHDLNAYRVLFDEDGDPRLSCFGLMKNSRDGKSYSTNLAYTPPEYLRNGRVTPESVTYSFGTVLLDLLSGKHIPPSHALDMIRGKNIILLMDSHLEGKFSTEEATVVVELASQCLQYEPRERPNTKDLVATLAPLQTKSDVPSYVMLGIKKQEEAPSTPQRPLSPLGEACSRMDLTAIHQILVMTHYRDDEGTNELSFQEWTQQMKDMLDARKRGDQSFREKDFKTAIDCYSQFIDVGTMVSPTVFGRRSLCYLLCDQPDAALRDAMQAQCVYPDWPTAFYMQSVALAKLNMNTDAADMLNEAAQLEEKRQRGGRGS
